Laboratory results taken from publication PMC7858582.

Tests used:
[1] = target: soluble recombinant mouse BAFF (mouse) (UniProt Q9WU72)
[2] = target: soluble recombinant mouse BAFF (mouse) (UniProt Q9WU72); remark: listed apart in the source

UniProt Q9WU72, sequence (Q9WU72 127-309): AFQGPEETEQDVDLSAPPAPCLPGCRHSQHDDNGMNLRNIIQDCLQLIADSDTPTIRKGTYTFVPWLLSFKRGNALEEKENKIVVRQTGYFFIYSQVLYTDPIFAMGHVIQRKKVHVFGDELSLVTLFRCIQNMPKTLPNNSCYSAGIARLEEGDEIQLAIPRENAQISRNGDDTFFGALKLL

Row | percent of NgR1+ or NgR3+ B-cells isolated from spinal cord of EAE ngr1+/+ mice in S phase (BrdU/7AAD flow cytometry) after 50 ng/mL rBAFF pre-incubated with excess NgR-Fc [1] [%] | percent of isolated spinal cord B-cells staying in the G0/G1 phase after rBAFF pre-incubated with excess NgR-Fc [1] [%] | percent of B-cells isolated from spleen entering the S phase after rBAFF pre-incubated with excess NgR-Fc [2] [%] | percent of B-cells isolated from spleen halted in the G0/G1 phase after rBAFF pre-incubated with excess NgR-Fc [2] [%] | percent of NgR1+ or NgR3+ B-cells isolated from spinal cord of EAE ngr1+/+ mice in S phase (BrdU/7AAD flow cytometry) after 50 ng/mL rBAFF pre-incubated with excess rBAFF-R [1] [%] | Binder
1 | 20.6 | 55.8 | 8 | 85.5 |  | NgR1-Fc (Fc fusion) CPGACVCYNEPKVTTSCPQQGLQAVPTGIPASSQRIFLHGNRISHVPAASFQSCRNLTILWLHSNALARIDAAAFTGLTLLEQLDLSDNAQLHVVDPTTFHGLGHLHTLHLDRCGLRELGPGLFRGLAALQYLYLQDNNLQALPDNTFRDLGNLTHLFLHGNRIPSVPEHAFRGLHSLDRLLLHQNHVARVHPHAFRDLGRLMTLYLFANNLSMLPAEVLMPLRSLQYLRLNDNPWVCDCRARPLWAWLQKFRGSSSEVPCNLPQRLADRDLKRLAASDLEGCAVASGPFRPIQTSQLTDEELLSLPKCCQPDAADKASVLEPGRPASAGNALKGRVPPGDTPPGNGSGPRHINDSPFGTLPSSAEPPLTALRPGGSEPPGLPTTGPRRRPGCSRKNRTRSHCRLGQAGSGASGTGDAEGS
2 |  |  |  |  | 27.7 | recombinant BAFF-R (receptor) MGARRLRVRSQRSRDSSVPTQCNQTECFDPLVRNCVSCELFHTPDTGHTSSLEPGTALQPQEGSALRPDVALLVGAPALLGLILALTLVGLVSLVSWRWRQQLRTASPDTSEGVQQESLENVFVPSSETPHASAPTWPPLKEDADSALPRHSVPVPATELGSTELVTTKTAGPEQ
